In publication PMC6013482, “Conformational switching of the pseudokinase domain promotes human MLKL tetramerization and cell death by necroptosis” (Nature Communications, 2018):
Where a chain is given by its changes, count along the chain named. Names may count otherwise.

B1: wild-type human MLKL (residues 2–471), recombinant (natural protein, UniProt Q8NB16 2-471, looked up)
chain: ENLKHIITLGQVIHKRCEEMKYCKKQCRRLGHRVLGLIKPLEMLQDQGKRSVPSEKLTTAMNRFKAALEEANGEIEKFSNRSNICRFLTASQDKILFKDVNRKLSDVWKELSLLLQVEQRMPVSPISQGASWAQEDQQDADEDRRAFQMLRRDNEKIEASLRRLEINMKEIKETLRQYLPPKCMQEIPQEQIKEIKKEQLSGSPWILLRENEVSTLYKGEYHRAPVAIKVFKKLQAGSIAIVRQTFNKEIKTMKKFESPNILRIFGICIDETVTPPQFSIVMEYCELGTLRELLDREKDLTLGKRMVLVLGAARGLYRLHHSEAPELHGKIRSSNFLVTQGYQVKLAGFELRKTQTSMSLGTTREKTDRVKSTAYLSPQELEDVFYQYDVKSEIYSFGIVLWEIATGDIPFQGCNSEKIRKLVAVKRQQEPLGEDCPSELREIIDECRAHDPSVRPSVDEILKKLSTFSK
notes: human MLKL, residues 2–471; Elutes as oligomer (tetramer) and monomer peaks; the peaks were pooled except where indicated; Native MS used the oligomer SEC fraction; also called hMLKL; wild-type hMLKL; source: Sf21 insect cells (baculovirus), purified (glutathione agarose, TEV cleavage, Superdex S200); not shown: GST, N-terminal, cleaved
B2: K331N human MLKL (residues 2–471), recombinant (natural protein, UniProt Q8NB16 2-471, looked up)
chain: B1 chain with K330N
notes: human MLKL, residues 2–471, with K331N in the pseudocatalytic loop; also called K331N hMLKL; K331N hMLKL(2–471); source: Sf21 insect cells (baculovirus), purified (glutathione agarose, TEV cleavage, Superdex S200); not shown: GST, N-terminal, cleaved
B3: Streptavidin-binding peptide (SBP)-tagged human RIPK3 kinase domain (residues 2–356) (domain or fragment, UniProt Q9Y572 2-356, looked up)
chain: SCVKLWPSGAPAPLVSIEELENQELVGKGGFGTVFRAQHRKWGYDVAVKIVNSKAISREVKAMASLDNEFVLRLEGVIEKVNWDQDPKPALVTKFMENGSLSGLLQSQCPRPWPLLCRLLKEVVLGMFYLHDQNPVLLHRDLKPSNVLLDPELHVKLADFGLSTFQGGSQSGTGSGEPGGTLGYLAPELFVNVNRKASTASDVYSFGILMWAVLAGREVELPTEPSLVYEAVCNRQNRPSLAELPQAGPETPGLEGLKELMQLCWSSEPKDRPSFQECLPKTDEVFQMVENNMNAAVSTVKDFLSQLRSSNRRFSIPESGQGGTEMDGFRRTIENQHSRNDVMVSEWLNKLNLEE
notes: human RIPK3 kinase domain, residues 2–356; The His6 fusion is TEV protease-cleavable; also called SBP-hRIPK3; hRIPK3 kinase domain; source: Sf21 insect cells (bacmid from pFastBac Htb); not shown: SBP, N-terminal, kept

Key:
[1] = target: the molecule itself; experiment: native MS; 250 mM ammonium acetate, nano electrospray; wild type: the oligomer SEC fraction; self-association
[2] = target: the molecule itself; experiment: AUC; sedimentation velocity, 0.25, 0.5 or 1 mg/mL hMLKL, 20 mM HEPES pH 7.5, 200 mM NaCl, 50,000 rpm, 20 °C; at 1 mg/mL also with 300 μM ATP; self-association (tetramer and monomer)
[3] = target: B1; experiment: SPR; SBP-hRIPK3 (2–356) immobilised on a streptavidin chip (Biacore SA); hMLKL flowed over at 1, 0.5, 0.25, 0.125, 0.0625 and 0 μM, 30 μL/min; 20 mM HEPES pH 8.0, 200 mM NaCl; 25 °C; conditions: both partners purified

Binder: B1
- stoichiometry N [1]: 4

Binder: B2
- stoichiometry N [2]: 4

Binder: B3
- binding result [3]: binds
